Test results: publication PMC8550936
pKd: −log10 of the molar value.

Assays:
[1] = molecular target: Venezuelan equine encephalitis virus (VEEV) virus-like particles (Venezuelan equine encephalitis virus, strain TC-83) (UniProt P09592); assay: cryo-EM structure
[2] = molecular target: Venezuelan equine encephalitis virus (VEEV) virus-like particles (Venezuelan equine encephalitis virus, strain TC-83) (UniProt P09592); assay: SPR; Biacore T200; […]; 30 µl/min, 25 °C, HBS-P plus 1 mM CaCl2; global 1:1 fit; […]

Chain of LDLRAD3(D1), cleaved monomeric ectodomain of mouse low-density lipoprotein receptor class A domain-c (A2AR95 18-70): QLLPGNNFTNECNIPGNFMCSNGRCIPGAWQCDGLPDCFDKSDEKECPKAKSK
Chain of LDLRAD3(D1+D2), cleaved monomeric ectodomain of mouse LDLRAD3, domains 1 and 2 (A2AR95 18-112): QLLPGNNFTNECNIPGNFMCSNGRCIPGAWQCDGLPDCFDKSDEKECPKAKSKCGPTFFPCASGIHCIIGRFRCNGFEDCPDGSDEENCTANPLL

Substance | stoichiometry N (molecules of LDLRAD3(D1) per VLP) [1] | pKd [2]
LDLRAD3(D1), cleaved monomeric ectodomain of mouse low-density lipoprotein receptor class A domain-c (from UniProt A2AR95 18-70) (domain or fragment) | 240 | –
LDLRAD3(D1+D2), cleaved monomeric ectodomain of mouse LDLRAD3, domains 1 and 2 (from UniProt A2AR95 18-112) (domain or fragment) | – | 7.30
